# B1: U3 small nucleolar RNA-associated protein 4 homolog (Homo sapiens), Q969X6 (parent)
# chain: MGEFKVHRVRFFNYVPSGIRCVAYNNQSNRLAVSRTDGTVEIYNLSANYFQEKFFPGHESRATEALCWAEGQRLFSAGLNGEIMEYDLQALNIKYAMDAFGGPIWSMAASPSGSQLLVGCEDGSVKLFQITPDKIQFERNFDRQKSRILSLSWHPSGTHIAAGSIDYISVFDVKSGSAVHKMIVDRQYMGVSKRKCIVWGVAFLSDGTIISVDSAGKVQFWDSATGTLVKSHLIANADVQSIAVADQEDSFVVGTAEGTVFHFQLVPVTSNSSEKQWVRTKPFQHHTHDVRTVAHSPTALISGGTDTHLVFRPLMEKVEVKNYDAALRKITFPHRCLISCSKKRQLLLFQFAHHLELWRLGSTVATGKNGDTLPLSKNADHLLHLKTKGPENIICSCISPCGSWIAYSTVSRFFLYRLNYEHDNISLKRVSKMPAFLRSALQILFSEDSTKLFVASNQGALHIVQLSGGSFKHLHAFQPQSGTVEAMCLLAVSPDGNWLAASGTSAGVHVYNVKQLKLHCTVPAYNFPVTAMAIAPNTNNLVIAHSDQQVFEYSIPDKQYTDWSRTVQKQGFHHLWLQRDTPITHISFHPKRPMHILLHDAYMFCIIDKSLPLPNDKTLLYNPFPPTNESDVIRRRTAHAFKISKIYKPLLFMDLLDERTLVAVERPLDDIIAQLPPPIKKKKFGT
# Variants of: B1
# Settings: with zep1_human HIVEP1, P15822
row,Variant,effect of a mutation on the interaction
1,R565W,decreasing interaction

# — IntAct's records for PubMed 19732766
